Consider 5 molecules from patent publication US20250263441A1 (Metanovas Biotech Inc., priority 2024, published 2025).

Holding throughout (type): cell-based
Data set [1] deals with Mouse macrophage RAW264.7 cells. As to the kind of experiment: IL-6 and IL-1β protein concentration in LPS-stimulated RAW264.7 cells (ELISA). To be noted: Dexamethasone positive control; LPS 10 ng/ml, 24 hours; repeated experiments. As for the experimental part:
(§1) (1) Mouse macrophage RAW264.7 cells were cultured in DMEM supplemented with 10% fetal bovine serum (FBS) and 1% penicillin and streptomycin (P/S) at 37° C. in a 5% CO2 incubator.
(§2) (2) 5×10^4 mouse-derived RAW264.7 macrophages were placed in 12-well cell culture plates and cultured for 24 hours. Then, 20 μL of PBS (negative control), Dexamethasone (positive control), and the test peptide were added to the wells for incubation for 2 hours. Afterward, 10 ng/ml of lipopolysaccharide (LPS) was mixed with RAW264.7 cells and incubated for 24 hours.
(§3) (3) The supernatant was collected, and NO and IL-6/IL-1ß expression levels were measured using a commercial kit.
2. After treating RAW264.7 cells with peptide AMP-33, an ELISA kit was used to detect the concentration of IL-6 and IL-1β proteins.
Background: An ELISA detects its analyte on a solid surface through an enzyme-linked reagent.

Data set [2] shares this test system. As to the kind of experiment: NO concentration after treatment of LPS-stimulated RAW264.7 cells. To be noted: Dexamethasone positive control; LPS 10 ng/ml, 24 hours; replicate experiments. As for the experimental part:
as §1, §2, §3

A further data set deals with Propionibacterium acnes. As to the kind of experiment: Minimum inhibitory concentration on Propionibacterium acnes (liquid culture). As to conditions: for Minimum inhibitory concentration on Propionibacterium acnes: anaerobic, 37° C., 24 to 48 hours. How it is done:
(§4) Primary screening of liquid culture: the peptides in Examples 1 to 2 were dissolved in pure water to a concentration of 100 μg/mL. Using a micropipette, 10 μL of the peptides were added to a new 96-well plate in order from left to right, starting from the second compartment. Positive and negative controls were established for use. The 96-well plates were arranged vertically, and the peptide concentrations in the control groups were the same as those of the antimicrobial peptides. The control groups included: pure water and bacteria, antimicrobial peptide FK13 and bacteria, antimicrobial peptide HPA3NT3 and bacteria, and ciprofloxacin and bacteria. An aseptic medium was used.
(§5) If a 96-deep-well plate was used to culture bacteria, an additional 100 μL of sterile medium was added to all wells.
Propionibacterium acnes was inoculated on an anaerobic blood agar plate, placed in an anaerobic bag, and incubated anaerobically at 37° C. for 48 hours. Propionibacterium acnes clones were then picked and incubated anaerobically in liquid anaerobic broth medium at 37° C. for an additional 48 hours. The bacterial concentration was measured and diluted to 107 CFU/mL with culture medium.
(§6) The prepared fresh bacterial suspension was diluted to 105 CFU/mL and added to the 96-well plate with 90 μL of the bacterial suspension per well. The plate was incubated at 37° C. with a normal oxygen concentration for 24 to 48 hours (Propionibacterium acnes was cultured anaerobically at 37° C. for 24 to 48 hours in an anaerobic bag). The absorbance at 630 nm was measured using a microplate reader, and the degree of turbidity was observed by the naked eye.
(§7) (iv) Repetition of Operations: The Operations in (iii) were Repeated Twice, and the Decision to Perform a Third Repetition was Based on the Reproducibility of the Experiment.

A further data set concerns Escherichia coli. As to the kind of experiment: Minimum inhibitory concentration on Escherichia coli (liquid culture). To be noted: for Minimum inhibitory concentration on Escherichia coli: 37° C., 24 to 48 hours. As for the experimental part:
as §4, §5
E. coli was inoculated in LB medium with normal oxygen concentration (21%) for 48 hours. E. coli clones were picked and incubated in LB medium at 37° C. with normal oxygen concentration (21%) for an additional 48 hours. The bacterial concentration was measured and diluted to 107 CFU/mL with culture medium for use.
as §6, §7

The subject of a further data set is Staphylococcus aureus. As to the kind of experiment: Minimum inhibitory concentration on Staphylococcus aureus (liquid culture). To be noted: for Minimum inhibitory concentration on Staphylococcus aureus: 37° C., 24 to 48 hours. As for the experimental part:
as §4, §5
Staphylococcus aureus was inoculated in LB medium with a normal oxygen concentration (21%) for 48 hours. Staphylococcus aureus clones were picked and incubated in LB medium at 37° C. with a normal oxygen concentration (21%) for an additional 48 hours. The bacterial concentration was measured and diluted to 107 CFU/mL with culture medium for use.
as §6, §7

Data set [3] concerns rabbit blood erythrocytes. Nature of the data set: Measurement of hemolytic concentration. As to conditions: for Hemolysis rate: 37° C., 1 hour, replicate wells; for Minimum hemolytic concentration: rabbit erythrocytes. How it is done: 4 mL of 2% rabbit blood erythrocytes were washed twice with 4 mL PBS and centrifuged at 3000 rpm for 5 minutes. The supernatant was discarded, and the rabbit blood erythrocytes were resuspended in 4 mL PBS. 160 μg of the peptides from Examples 1 to 2, FK13, and HPA3NT3 were independently dissolved in 1 mL PBS buffer to prepare the peptide mother solutions with a concentration of 160 μg/mL. Subsequently, the peptide mother solutions were diluted with PBS buffer to concentrations of 80 μg/mL, 64 μg/mL, 32 μg/mL, 16 μg/mL, and 8 μg/mL. 100 μL of the 2% rabbit blood erythrocytes and 100 μL of different concentrations of peptides (80 μg/mL, 64 μg/mL, 32 μg/mL, 16 μg/mL, 8 μg/mL) were added to each well of a 96-well plate. In the negative control, 100 μL of PBS buffer was added, while in the positive control, 100 μL of 0.1% (w/v) Triton X-100 was added. Three replicate wells were set up for each group and incubated at 37° C. for 1 hour. The 96-well plate was then removed, centrifuged at 3000 rpm for 5 minutes, and 100 μL of supernatant was aspirated and transferred to a new 96-well plate. The absorbance was measured at 540 nm using an enzyme meter. Hemolysis rate (%)=((Absorbancesample−Absorbancenegative)/(Absorbancepositive−Absorbancenegative))*100%.

Data set [4] concerns HaCat (human immortalized epidermal cells) cells. Nature of the data set: Cytotoxic assay (CCK-8) in HaCat cells. To be noted: 60 hours. How it is done:
Preparation of Cell Suspension: HaCat (human immortalized epidermal cells) cells were counted and inoculated into 96-well plates. 100 μL of cell suspension was added to each well, corresponding to a density of 5×10^4 cells per well, with three replicates for each sample. The cells were cultured in a 37° C. incubator for 4 hours until they were attached to the plate. Peptides from the examples, as well as FK13 and HPA3NT3, were then added at concentrations of 80 μg/mL, 32 μg/mL, and 8 μg/mL. The cells were incubated at 37° C. for 60 hours. Afterward, 10 μL of CCK-8 solution was added, and the cells were cultured for an additional 2 hours. The absorbance of the peptides at 450 nm was measured using a dual-wavelength detector, with a detection wavelength of 450-490 nm and a reference wavelength of 600-650 nm.

In another data set the test system is Candida albicans. As to the kind of experiment: Minimum inhibitory concentration on Candida albicans (liquid culture). To be noted: 37° C., 24 to 48 hours. As for the experimental part:
Primary screening of liquid culture: the peptides in Examples 1 to 2 were dissolved in pure water to a concentration of 100 μg/mL. Using a micropipette, 10 μL of the peptides were added to a new 96-well plate in order from left to right, starting from the second compartment. Positive and negative controls were established for use. The 96-well plates were arranged vertically, and the peptide concentrations of the control groups were the same as those of the antimicrobial peptide. The control groups consisted of: pure water and bacteria, antimicrobial peptide FK13 and bacteria, and antimicrobial peptide HPA3NT3 and bacteria. An aseptic medium was used. The amino acid sequence of FK13 is […] (SEQ ID NO: 5), and the amino acid sequence of HPA3NT3 is […] (SEQ ID NO: 6).
as §5
Candida albicans was inoculated in LB medium with normal oxygen concentration (21%) for 48 hours. […] clones were picked and incubated in LB medium at 37° C. with normal oxygen concentration (21%) for 48 hours. The bacterial concentration was measured and diluted to 107 CFU/mL with culture medium for use.
The prepared fresh bacterial suspension was diluted to 105 CFU/mL and added to the 96-well plate with 90 μL of the bacterial suspension per well, and incubated at 37° C. with normal oxygen concentration for 24 to 48 hours. The absorbance at 630 nm was measured with a microplate reader, and the degree of turbidity was observed by the naked eye.
as §7

Values after ≈ are worked out from the molar mass of the structure shown. Values joined by “and” are separate entries in the source; they are usually repeats but may differ in a detail not shown here. Identical values can stand only once.

`C[C@@H]1C[C@H]2[C@@H]3CCC4=CC(=O)C=C[C@]4(C)[C@@]3(F)[C@@H](O)C[C@]2(C)[C@@]1(O)C(=O)CO` [Dexamethasone, reference compound]: in data set [1], the IL-1β protein concentration is 75.1 pg/mL and 44 pg/mL; the IL-6 protein concentration was 14.2 pg/mL and 23.9 pg/mL. The NO concentration in data set [2] was 6.80 µM and 6.06 µM and 3.43 µM.

Consider `O=C(O)c1cn(C2CC2)c2cc(N3CCNCC3)c(F)cc2c1=O` [ciprofloxacin], for which the MIC in the data set on Propionibacterium acnes (Cutibacterium acnes, read-out: Minimum inhibitory concentration on Propionibacterium acnes) stood at 0.25 µg/mL (≈ 0.754 µM); in the data set with Escherichia coli (Escherichia coli, read-out: Minimum inhibitory concentration on Escherichia coli), 0.25 µg/mL (≈ 0.754 µM); with Staphylococcus aureus (Staphylococcus aureus, read-out: Minimum inhibitory concentration on Staphylococcus aureus), 0.25 µg/mL (≈ 0.754 µM).

Regarding “Example 1: GIFKKITGKLFKWIK (designated as AMP5)”, in the data set with Propionibacterium acnes, the “Minimum inhibitory concentration on Propionibacterium acnes” value worked out at 8 µg/mL. For the same molecule, the Hemolysis rate in data set [3] (8 μg/mL) was 14.6% and −0.9% and 2.8%; in data set [3] (16 μg/mL), 5.9% and 1.8% and 80.0%; in data set [3] (32 μg/mL), 62% and 2.8% and −1.9%; in data set [3] (64 μg/mL), 3.7% and −1.0% and 3.8%; in data set [3] (80 μg/mL), 14.6% and −0.9% and 2.8%. Besides, in data set [3], the Minimum hemolytic concentration came to 3.7 µg/mL. This molecule returned a Maximum cytotoxicity-free concentration in data set [4] of 80 µg/mL. In addition, the “Minimum inhibitory concentration on Escherichia coli” value in the data set with Escherichia coli is 50 µg/mL. Also, in the data set on Candida albicans, the “Minimum inhibitory concentration on Candida albicans” value turned out to be 25 µg/mL. Moreover, in the data set with Staphylococcus aureus, the “Minimum inhibitory concentration on Staphylococcus aureus” value stood at 50 µg/mL.

Consider “FK13: antimicrobial peptide FK13, FPLTWLKWWKWKKK [reference compound]”, for which the “Minimum inhibitory concentration on Propionibacterium acnes” value with Propionibacterium acnes is 4 µg/mL. Further, the Hemolysis rate is 3.9% and 7.2% and 5.9% in data set [3] (8 μg/mL); 3.4% and 2.5% and 0.4% in data set [3] (16 μg/mL); 2.5% and 3.1% and 5.0% in data set [3] (32 μg/mL); 5.3% and 2.5% and 2.7% in data set [3] (64 μg/mL); 27.0% and 21.5% and 27.4% in data set [3] (80 μg/mL). Besides, in data set [3], the Minimum hemolytic concentration was determined as 64.0 µg/mL. This molecule returned a Maximum cytotoxicity-free concentration in data set [4] of 80 µg/mL. For the same molecule, in the data set with Escherichia coli, the “Minimum inhibitory concentration on Escherichia coli” value came to 50 µg/mL. Further, the “Minimum inhibitory concentration on Candida albicans” value in the data set with Candida albicans worked out at 25 µg/mL. Also, the “Minimum inhibitory concentration on Staphylococcus aureus” value in the data set with Staphylococcus aureus was 4 µg/mL.

Turning to “HPA3NT3: antimicrobial peptide HPA3NT3, FKRLKKLFKKKKIWNWK [reference compound]”, the “Minimum inhibitory concentration on Propionibacterium acnes” value in the data set on Propionibacterium acnes came out at 2 µg/mL. Further, the Hemolysis rate in data set [3] (8 μg/mL) is 2.4% and 6.2% and 4.7%; in data set [3] (16 μg/mL) it was 23% and −0.2% and 0.4%; in data set [3] (32 μg/mL) it was 2.7% and 1.4% and 7.8%; in data set [3] (64 μg/mL), 21.4% and −0.8% and 0.6%; in data set [3] (80 μg/mL), 9.7% and 8.5% and 13.7%. Further, the Minimum hemolytic concentration in data set [3] turned out to be 64.0 µg/mL. This molecule also registered a Maximum cytotoxicity-free concentration in data set [4] of 32 µg/mL. In addition, the “Minimum inhibitory concentration on Escherichia coli” value with Escherichia coli was 25 µg/mL. For the same molecule, in the data set with Candida albicans, the “Minimum inhibitory concentration on Candida albicans” value was 50 µg/mL. In addition, the “Minimum inhibitory concentration on Staphylococcus aureus” value in the data set on Staphylococcus aureus came to 4 µg/mL.
